From paper PMC5062973 (Nucleic Acids Research, 2016)

T1: M. jannaschii Nop5 (amino acids 1-367) (M. jannaschii, UniProt Q58105 1-367)
T1 sequence (looked up): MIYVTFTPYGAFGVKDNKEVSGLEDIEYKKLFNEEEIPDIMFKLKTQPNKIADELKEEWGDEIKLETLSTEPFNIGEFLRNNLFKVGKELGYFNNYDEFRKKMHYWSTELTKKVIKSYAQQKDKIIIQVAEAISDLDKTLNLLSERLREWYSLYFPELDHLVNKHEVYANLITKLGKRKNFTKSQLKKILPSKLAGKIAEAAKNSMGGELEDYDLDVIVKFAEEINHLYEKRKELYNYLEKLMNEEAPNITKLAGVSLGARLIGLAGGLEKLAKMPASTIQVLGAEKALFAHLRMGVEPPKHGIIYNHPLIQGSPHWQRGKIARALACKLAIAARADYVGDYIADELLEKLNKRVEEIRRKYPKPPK


Biological target: T1, M. jannaschii Nop5 (amino acids 1-367)
Test: SEC

Binder | binding result
M. jannaschii fibrillarin with a N-terminal FLAG-tag (enzyme, UniProt Q58108 1-230, looked up) MEDIKIKEIFENIYEVDLGDGLKRIATKSIVKGKKVYDEKIIKIGDEEYRIWNPNKSKLAAAIIKGLKVMPIKRDSKILYLGASAGTTPSHVADIADKGIVYAIEYAPRIMRELLDACAERENIIPILGDANKPQEYANIVEKVDVIYEDVAQPNQAEILIKNAKWFLKKGGYGMIAIKARSIDVTKDPKEIFKEQKEILEAGGFKIVDEVDIEPFEKDHVMFVGIWEGK | binds
M. jannaschii L7Ae (natural protein) not shown | binds
